Three molecules from patent US20120058906A1 (published 2012) can be followed below.

In assay [1] the target is T1, rHuman CD44/Fc Chimera, CF (R&D Systems Cat#3660-CD) (human, UniProt P16070 21-220).
T1 construct: Bought Fc chimera; not shown: Fc of the bought chimera
As to the kind of experiment: ECL (MSD multi-spot), antigen on plate, Fab 50 nM.

The target in assay [2] is T2, Recombinant Human DLL4 (R&D Systems Cat#1506-D4/CF) (human, UniProt Q9NR61 27-524).
T2 construct: Bought recombinant protein; also called delta-like protein 4
The assay is described as follows: ECL (MSD multi-spot), antigen on plate, Fab 50 nM.

The target of assay [3] is T3, rHuman P-Cadherin/Fc Chimera, CF (R&D Systems Cat#861-PC) (human, UniProt P22223 108-654).
T3 construct: Bought Fc chimera; also called CDH3; not shown: Fc of the bought chimera
The assay is described as follows: ECL (MSD multi-spot), antigen on plate, Fab 50 nM.

The target of assay [4] is T4, rHuman EGF R/Fc Chimera, CF (R&D Systems Cat#344-ER) (human, UniProt P00533 25-645).
T4 construct: Bought Fc chimera; also called ErbB-1; not shown: Fc of the bought chimera
The assay is described as follows: ECL (MSD multi-spot), antigen on plate, Fab 50 nM.

Assay [5] deals with T5, rHuman IGF-1 sR (insulin-like growth factor-1 soluble receptor), CF (R&D Systems Cat#391-GR) (human, UniProt P08069 31-932).
T5 construct: Bought soluble receptor; also called IGF-R1
As to the kind of experiment: ECL (MSD multi-spot), antigen on plate, Fab 50 nM.

In assay [6] the target is T6, rHuman IGF-1 sR (IGF-1 sR), CF (R&D Systems Cat#391-GR) (human, UniProt P08069 31-932).
T6 construct: Bought soluble receptor; also called insulin-like growth factor-1 soluble receptor; IGF-R1
As to the kind of experiment: ECL (MSD Multi-Spot) binding assay, antigen spotted on plate; Fab 17 nM; blank spot 143.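 Also: blank spot per well as comparator with Hit at signal to blank ratio of 4 or more.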

Assay [7] concerns the target T7, Recombinant Human DLL4 (R&D Systems Cat#1506-D4/CF) (human, UniProt Q9NR61 27-524).
T7 construct: Bought recombinant protein; also called delta-like protein 4; rHuman DLL4
Described as above.

Assay [8] has as its target T8, rHuman Erythropoietin R/Fc Chimera, CF (R&D Systems Cat#963-ER) (human, UniProt P19235 25-250).
T8 construct: Bought Fc chimera; also called EPO R/Fc; Epo R; Fc part of the bought chimera not given
T8 sequence: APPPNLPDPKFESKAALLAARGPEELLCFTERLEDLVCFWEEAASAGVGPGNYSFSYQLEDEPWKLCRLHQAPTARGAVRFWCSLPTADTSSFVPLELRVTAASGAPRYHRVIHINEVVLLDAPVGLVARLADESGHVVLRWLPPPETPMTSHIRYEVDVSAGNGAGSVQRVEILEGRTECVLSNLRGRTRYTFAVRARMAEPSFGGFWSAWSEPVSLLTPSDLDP
Described as above.

The target of assay [9] is T9, rHuman CD44/Fc Chimera, CF (R&D Systems Cat#3660-CD) (human, UniProt P16070 21-220).
T9 construct: Bought Fc chimera; Fc part of the bought chimera not given
The description is as above.

In assay [10] the target is T10, rHuman Erythropoietin R/Fc Chimera, CF (R&D Systems Cat#963-ER) (human, UniProt P19235 25-250).
T10 construct: Bought reagent; also called EPO R/Fc; Epo R; Fc part of the bought chimera not given
T10 sequence: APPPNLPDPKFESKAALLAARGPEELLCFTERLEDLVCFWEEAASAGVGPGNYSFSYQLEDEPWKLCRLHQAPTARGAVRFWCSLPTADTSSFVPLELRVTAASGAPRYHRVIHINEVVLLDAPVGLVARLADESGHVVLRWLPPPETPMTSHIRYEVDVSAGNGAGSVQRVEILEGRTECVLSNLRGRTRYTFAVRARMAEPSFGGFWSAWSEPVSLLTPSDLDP
As to the kind of experiment: ECL (MSD multi-spot), antigen spotted on plate; Fab 1410 nM; blank spot 709.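 Also: blank spot per well as comparator with Hit at signal to blank ratio of 4 or more.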

The target in assay [11] is T11, rHuman Notch-1/Fc Chimera, CF (R&D Systems Cat#3647-TK) (human, UniProt P46531 19-526).
T11 construct: Bought reagent; Fc part of the bought chimera not given
Described as above.

Assay [12] deals with T12, rHuman IGF-1 sR (IGF-1 sR), CF (R&D Systems Cat#391-GR) (human, UniProt P08069 31-932).
T12 construct: Bought soluble receptor; also called insulin-like growth factor-1 soluble receptor; IGF-R1
Described as above.

Assay [13] has as its target T13, rHuman CD44/Fc Chimera, CF (R&D Systems Cat#3660-CD) (human, UniProt P16070 21-220).
T13 construct: Bought reagent; Fc part of the bought chimera not given
The assay is described as above.

Assay [14] deals with T14, rHuman EGF R/Fc Chimera, CF (R&D Systems Cat#344-ER) (human, UniProt P00533 25-645).
T14 construct: Bought reagent; also called epidermal growth factor receptor; Fc part of the bought chimera not given
The assay is described as above.

Assay [15] deals with T15, rHuman P-Cadherin/Fc Chimera, CF (R&D Systems Cat#861-PC) (human, UniProt P22223 108-654).
T15 construct: Bought reagent; also called CDH3; Fc part of the bought chimera not given
The assay is described as above.

For assay [16], the target named is T16, Recombinant Human DLL4 (R&D Systems Cat#1506-D4/CF) (human, UniProt Q9NR61 27-524).
T16 construct: Bought reagent; also called delta-like protein 4
The description is as above.

Assay [17] has as its target T17, rHuman HGF R/c-MET/Fc Chimera, CF (R&D Systems Cat#358-MT/CF) (human, UniProt P08581 25-932).
T17 construct: Bought reagent; also called HGF R/Fc; hepatocyte growth factor receptor; Fc part of the bought chimera not given
Described as above.

In assay [18] the target is T18, rHuman ErbB2/Fc Chimera, CF (R&D Systems Cat#1129-ER) (human, UniProt P04626 23-652).
T18 construct: Bought reagent; also called HER2/neu; human epidermal growth factor 2 receptor; Fc part of the bought chimera not given
The description is as above.

B1: Fab VH1-46_IGHD6-6*01_IGHJ1*01_S102A_S103P_S104Y_H111Y & L6_IGKJ1*01 (Fab, V domains shown)
VH: QVQLVQSGAEVKKPGASVKVSCKASGYTFTSYYMHWVRQAPGQGLEWMGIINPSGGSTSYAQKFQGRVTMTRDTSTSTVYMELSSLRSEDTAVYYCAREEYAPYSAEYFQYWGQGTLVTVSS
VL: not shown
notes: Fab made in E. coli; The heavy chain also carries CH1 with Flag and His tags from Plasmid A, and the light chain carries kappa CL from Plasmid C
Take B1: the ECL signal in assay [1] turned out to be 345 ECL signal; in assay [2], 201000 ECL signal; in assay [3], 470 ECL signal; in assay [4] it was 489 ECL signal; in assay [5] it was 399 ECL signal.

B2: Fab VH5-51_IGHD5-18*01>3_IGHJ4*01 & V3-4_IGLJ1*01 (Fab, V domains shown)
VH: EVQLVQSGAEVKKPGESLKISCKGSGYSFTSYWIGWVRQMPGKGLEWMGIIYPGDSDTRYSPSFQGQVTISADKSISTAYLQWSSLKASDTAMYYCARRGYSYGYDYFDYWGQGTLVTVSS
VL: QTVVTQEPSFSVSPGGTVTLTCGLSSGSVSTSYYPSWYQQTPGQAPRTLIYSTNTRSSGVPDRFSGSILGNKAALTITGAQADDESDYYCVLYMGSGISYVFGTGTKVTVL
notes: Tested as a Fab made in E. coli; also called IGHV5-51*03
Take B2: the ECL signal in assay [6] stood at 872; in assay [7], 7160; in [8] it was 620; in assay [9] it was 518.

B3: Fab VH1-46_IGHD3-10*01_IGHJ4*01 & B3_IGKJ1*01 (Fab, V domains shown)
VH: QVQLVQSGAEVKKPGASVKVSCKASGYTFTSYYMHWVRQAPGQGLEWMGIINPSGGSTSYAQKFQGRVTMTRDTSTSTVYMELSSLRSEDTAVYYCAREYYYGSGSYYNDYFDYWGQGTLVTVSS
VL: not shown
notes: also called IGHV1-46*01
For the molecule B3, the ECL signal in assay [10] is 4310; in assay [11] it was 1030; in assay [12] it was 426; in assay [13], 885; in assay [14] it was 1070; in [15] it was 1060. Further, the ECL signal in assay [16] stood at 1260; in [17], 903; in assay [18] it was 932.
